Here are results for one sequence from paper PMC4132270.

In data set [1] the target is Taq 1C2 (Thermus aquaticus) (UniProt P19821). Kind of data set: EMSA. The settings on record: 3' end blocked with dideoxy TMP (3' ddT; unclear whether the printed 3' T is the ddT or it is added); 0.25 nM hairpin, 0.5-1000 nM enzyme, 1x Taq buffer (50 mM KCl for wild type, 95 mM KCl for mutants; full composition and pH not stated for this assay), 37 C …. For orientation: In EMSA bound probe runs differently from free probe, usually more slowly.

The target of data set [2] is Taq 42 G59W;L245M;L375V;E507K;K508R;E734G;F749I (Thermus aquaticus) (UniProt P19821). Kind of data set: EMSA. The settings on record: 3' end blocked with dideoxy TMP (3' ddT; unclear whether the printed 3' T is the ddT or it is added); 0.25 nM hairpin, 0.5-1000 nM enzyme, 1x Taq buffer (50 mM KCl for wild type, 95 mM KCl for mutants; full composition and pH not stated for this assay), 37 C ….

In general, Kd refers to the concentration at which binding is half-saturated. High values mean lower affinity, low ones higher affinity. Turning to “CTCCAGACACGACGCAGTTGCCCGATGGTCGACGTTCGCGAAAGCGAACGTCGACCATCGGGCAACT [hairpin primer-template]”, the figures for the Kd in data set [1] and in data set [2] were 1.9 nM and 2.75 nM, respectively.
